# Reference: the supplement of paper PMC10567573
# B1: SNX8 (parent)
# chain: RMVPALPPKRMLGADREFIEARRR
# Variants of: B1
# Experiment: protein stability index of a GFP-peptide fusion (GPS, HEK-293T) (PSI 1-6); higher = more stable
# Conditions: c terminus: a fixed tail appended
# 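Note: lentivirally expressed fusions sorted by FACS into six bins by GFP to DsRed ratio, PSI derived from sequencing read proportions per bin multiplied by bin number.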
row,Variant,protein stability index
1,RVVPALPPKRMLGADREFIEARRR [M2V],3.58
2,RWVPALPPKRMLGADREFIEARRR [M2W],2.14
3,RYVPALPPKRMLGADREFIEARRR [M2Y],3.57
4,RMAPALPPKRMLGADREFIEARRR [V3A],3.31
5,RMCPALPPKRMLGADREFIEARRR [V3C],3.5
6,RMDPALPPKRMLGADREFIEARRR [V3D],4.63
7,RMEPALPPKRMLGADREFIEARRR [V3E],4.49
8,RMFPALPPKRMLGADREFIEARRR [V3F],2.99
9,RMGPALPPKRMLGADREFIEARRR [V3G],3.07
10,RMHPALPPKRMLGADREFIEARRR [V3H],3.54
11,RMIPALPPKRMLGADREFIEARRR [V3I],2.38
12,RMKPALPPKRMLGADREFIEARRR [V3K],4.11
13,RMLPALPPKRMLGADREFIEARRR [V3L],1.85
14,RMMPALPPKRMLGADREFIEARRR [V3M],1.29
15,RMNPALPPKRMLGADREFIEARRR [V3N],4.08
16,RMPPALPPKRMLGADREFIEARRR [V3P],3.81
17,RMQPALPPKRMLGADREFIEARRR [V3Q],3.9
18,RMRPALPPKRMLGADREFIEARRR [V3R],3.94
19,RMSPALPPKRMLGADREFIEARRR [V3S],3.88
20,RMTPALPPKRMLGADREFIEARRR [V3T],4.1
21,RMWPALPPKRMLGADREFIEARRR [V3W],1.7
22,RMYPALPPKRMLGADREFIEARRR [V3Y],2.96
23,RMVAALPPKRMLGADREFIEARRR [P4A],3.32
24,RMVCALPPKRMLGADREFIEARRR [P4C],3.62

row,Variant,protein stability index
1,RMVDALPPKRMLGADREFIEARRR [P4D],3.57
2,RMVEALPPKRMLGADREFIEARRR [P4E],3.67
3,RMVFALPPKRMLGADREFIEARRR [P4F],2.98
4,RMVGALPPKRMLGADREFIEARRR [P4G],3.87
5,RMVHALPPKRMLGADREFIEARRR [P4H],3.09
6,RMVIALPPKRMLGADREFIEARRR [P4I],2.52
7,RMVKALPPKRMLGADREFIEARRR [P4K],3.81
8,RMVLALPPKRMLGADREFIEARRR [P4L],2.28
9,RMVMALPPKRMLGADREFIEARRR [P4M],3.1
10,RMVNALPPKRMLGADREFIEARRR [P4N],3.41
11,RMVQALPPKRMLGADREFIEARRR [P4Q],3.49
12,RMVRALPPKRMLGADREFIEARRR [P4R],4.13
13,RMVSALPPKRMLGADREFIEARRR [P4S],3.69
14,RMVTALPPKRMLGADREFIEARRR [P4T],3.34
15,RMVVALPPKRMLGADREFIEARRR [P4V],3.58
16,RMVWALPPKRMLGADREFIEARRR [P4W],2.77
17,RMVYALPPKRMLGADREFIEARRR [P4Y],3.31
18,RMVPCLPPKRMLGADREFIEARRR [A5C],3.85
19,RMVPDLPPKRMLGADREFIEARRR [A5D],4.23
20,RMVPELPPKRMLGADREFIEARRR [A5E],4.12
21,RMVPFLPPKRMLGADREFIEARRR [A5F],3.24
22,RMVPGLPPKRMLGADREFIEARRR [A5G],3.84
23,RMVPHLPPKRMLGADREFIEARRR [A5H],3.75
24,RMVPILPPKRMLGADREFIEARRR [A5I],3.2

row,Variant,protein stability index
1,RMVPKLPPKRMLGADREFIEARRR [A5K],3.77
2,RMVPLLPPKRMLGADREFIEARRR [A5L],4
3,RMVPMLPPKRMLGADREFIEARRR [A5M],3.49
4,RMVPNLPPKRMLGADREFIEARRR [A5N],4.08
5,RMVPPLPPKRMLGADREFIEARRR [A5P],3.59
6,RMVPQLPPKRMLGADREFIEARRR [A5Q],4.1
7,RMVPRLPPKRMLGADREFIEARRR [A5R],4.31
8,RMVPSLPPKRMLGADREFIEARRR [A5S],4.05
9,RMVPTLPPKRMLGADREFIEARRR [A5T],3.81
10,RMVPVLPPKRMLGADREFIEARRR [A5V],4.01
11,RMVPWLPPKRMLGADREFIEARRR [A5W],3.06
12,RMVPYLPPKRMLGADREFIEARRR [A5Y],3.12
13,RMVPAAPPKRMLGADREFIEARRR [L6A],4
14,RMVPACPPKRMLGADREFIEARRR [L6C],3.67
15,RMVPADPPKRMLGADREFIEARRR [L6D],4.44
16,RMVPAEPPKRMLGADREFIEARRR [L6E],4.52
17,RMVPAFPPKRMLGADREFIEARRR [L6F],3.45
18,RMVPAGPPKRMLGADREFIEARRR [L6G],3.88
19,RMVPAIPPKRMLGADREFIEARRR [L6I],3.96
20,RMVPAKPPKRMLGADREFIEARRR [L6K],3.73
21,RMVPAMPPKRMLGADREFIEARRR [L6M],3.73
22,RMVPANPPKRMLGADREFIEARRR [L6N],3.96
23,RMVPAQPPKRMLGADREFIEARRR [L6Q],4.02
24,RMVPARPPKRMLGADREFIEARRR [L6R],4.3

row,Variant,protein stability index
1,RMVPASPPKRMLGADREFIEARRR [L6S],4.84
2,RMVPATPPKRMLGADREFIEARRR [L6T],3.63
3,RMVPAVPPKRMLGADREFIEARRR [L6V],3.97
4,RMVPAWPPKRMLGADREFIEARRR [L6W],3.15
5,RMVPAYPPKRMLGADREFIEARRR [L6Y],3.39
6,RMVPALAPKRMLGADREFIEARRR [P7A],3.58
7,RMVPALCPKRMLGADREFIEARRR [P7C],2.91
8,RMVPALDPKRMLGADREFIEARRR [P7D],3.87
9,RMVPALEPKRMLGADREFIEARRR [P7E],4.35
10,RMVPALFPKRMLGADREFIEARRR [P7F],3.4
11,RMVPALGPKRMLGADREFIEARRR [P7G],4.01
12,RMVPALHPKRMLGADREFIEARRR [P7H],3.75
13,RMVPALIPKRMLGADREFIEARRR [P7I],3.62
14,RMVPALKPKRMLGADREFIEARRR [P7K],3.91
15,RMVPALLPKRMLGADREFIEARRR [P7L],3.18
16,RMVPALMPKRMLGADREFIEARRR [P7M],3.52
17,RMVPALNPKRMLGADREFIEARRR [P7N],3.45
18,RMVPALQPKRMLGADREFIEARRR [P7Q],3.5
19,RMVPALRPKRMLGADREFIEARRR [P7R],3.76
20,RMVPALSPKRMLGADREFIEARRR [P7S],4.08
21,RMVPALTPKRMLGADREFIEARRR [P7T],3.6
22,RMVPALVPKRMLGADREFIEARRR [P7V],4.05
